Assay results published in the supplement of paper PMC7125110.
± gives the standard error. This sample holds only a part of the variants without activity.

B1: glmS ribozyme (parent)
chain: AUAAAAGCGCCAGAACUACAGAAAUGUAGUUGACGAGGAGGAGGUUUAUCGAAUUUUCGGCGGAUGCCUCCAAA

Columns and labels:
Details in all cases: with glucosamine-6-phosphate
[1] = variants of: B1; assay: self-cleavage kobs at 40 uM GlcN6P; higher = faster cleavage; RNA array
In short: (§1)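 kcat and KM were obtained from weighted Michaelis–Menten fits across concentrations of kobs values. Those came from one- or two-exponential decay fits to per-tile medians normalised to baseline and to non-cleaving reference variants. The variants were barcoded ribozymes transcribed in situ by E. coli RNA polymerase on sequenced MiSeq chips and tracked through a hybridised Cy3 probe at 37 °C, with 40 μM to 10 mM glucosamine-6-phosphate in HEPES/KCl/Mg(OAc)2 buffer flowed in.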

[2] = variants of: B1; assay: self-cleavage kobs at 160 uM GlcN6P; higher = faster cleavage; RNA array
In short: as §1

[3] = variants of: B1; assay: self-cleavage kobs at 640 uM GlcN6P; higher = faster cleavage; RNA array
In short: as §1

[4] = variants of: B1; assay: self-cleavage kobs at 2500 uM GlcN6P; higher = faster cleavage; RNA array
In short: as §1

[5] = variants of: B1; assay: self-cleavage kobs at 10000 uM GlcN6P; higher = faster cleavage; RNA array
In short: as §1

C11G A39U C50G
self-cleavage kobs at 40 uM GlcN6P [1]: < 1e-05 s⁻¹
self-cleavage kobs at 160 uM GlcN6P [2]: < 1e-05 s⁻¹
self-cleavage kobs at 640 uM GlcN6P [3]: < 1e-05 s⁻¹
self-cleavage kobs at 2500 uM GlcN6P [4]: < 1e-05 s⁻¹
self-cleavage kobs at 10000 uM GlcN6P [5]: < 1e-05 s⁻¹

A6U C10A G40A U46G
self-cleavage kobs at 40 uM GlcN6P [1]: < 1e-05 s⁻¹
self-cleavage kobs at 10000 uM GlcN6P [5]: < 1e-05 s⁻¹

U47C G60U
self-cleavage kobs at 40 uM GlcN6P [1]: < 1e-05 s⁻¹
self-cleavage kobs at 160 uM GlcN6P [2]: < 1e-05 s⁻¹
self-cleavage kobs at 640 uM GlcN6P [3]: < 1e-05 s⁻¹
self-cleavage kobs at 2500 uM GlcN6P [4]: < 1e-05 s⁻¹

G32C A64C
self-cleavage kobs at 40 uM GlcN6P [1]: < 1e-05 s⁻¹
self-cleavage kobs at 160 uM GlcN6P [2]: < 1e-05 s⁻¹
self-cleavage kobs at 2500 uM GlcN6P [4]: < 1e-05 s⁻¹
self-cleavage kobs at 10000 uM GlcN6P [5]: < 1e-05 s⁻¹

A39U U69C
self-cleavage kobs at 40 uM GlcN6P [1]: 0.000261 ± 7.1e-05 s⁻¹
self-cleavage kobs at 2500 uM GlcN6P [4]: 0.0075 ± 0.0032 s⁻¹
self-cleavage kobs at 10000 uM GlcN6P [5]: 0.0107 ± 0.0039 s⁻¹

A6U G38U C71A
self-cleavage kobs at 40 uM GlcN6P [1]: < 1e-05 s⁻¹

C10A A52C
self-cleavage kobs at 40 uM GlcN6P [1]: < 1e-05 s⁻¹
self-cleavage kobs at 640 uM GlcN6P [3]: < 1e-05 s⁻¹
self-cleavage kobs at 2500 uM GlcN6P [4]: < 1e-05 s⁻¹
self-cleavage kobs at 10000 uM GlcN6P [5]: < 1e-05 s⁻¹

A15U G51U C71A
self-cleavage kobs at 40 uM GlcN6P [1]: < 1e-05 s⁻¹
self-cleavage kobs at 10000 uM GlcN6P [5]: < 1e-05 s⁻¹

A15G G29U U54C
self-cleavage kobs at 40 uM GlcN6P [1]: 2.83e-05 ± 1.3e-05 s⁻¹
self-cleavage kobs at 640 uM GlcN6P [3]: 0.000321 ± 0.0001 s⁻¹
self-cleavage kobs at 2500 uM GlcN6P [4]: 0.000796 ± 0.00016 s⁻¹

A15C G29C U30C U31G G38C G60A U69G
self-cleavage kobs at 40 uM GlcN6P [1]: < 1e-05 s⁻¹

C16U C50G G59A C68A
self-cleavage kobs at 40 uM GlcN6P [1]: 4.62e-05 ± 2.3e-05 s⁻¹
self-cleavage kobs at 10000 uM GlcN6P [5]: 4.07e-05 ± 1.3e-05 s⁻¹

A53C G62A
self-cleavage kobs at 40 uM GlcN6P [1]: < 1e-05 s⁻¹
self-cleavage kobs at 10000 uM GlcN6P [5]: < 1e-05 s⁻¹

U57A G63U C70G
self-cleavage kobs at 40 uM GlcN6P [1]: < 1e-05 s⁻¹

C11G U46A C67G
self-cleavage kobs at 40 uM GlcN6P [1]: < 1e-05 s⁻¹
self-cleavage kobs at 10000 uM GlcN6P [5]: < 1e-05 s⁻¹

C11U A33G G37U C71A
self-cleavage kobs at 40 uM GlcN6P [1]: < 1e-05 s⁻¹
self-cleavage kobs at 10000 uM GlcN6P [5]: < 1e-05 s⁻¹

G43C A53G
self-cleavage kobs at 40 uM GlcN6P [1]: < 1e-05 s⁻¹
self-cleavage kobs at 160 uM GlcN6P [2]: < 1e-05 s⁻¹
self-cleavage kobs at 640 uM GlcN6P [3]: < 1e-05 s⁻¹

A12C G41U
self-cleavage kobs at 40 uM GlcN6P [1]: 5.28e-05 ± 7e-06 s⁻¹
self-cleavage kobs at 160 uM GlcN6P [2]: 7.73e-05 ± 8.9e-06 s⁻¹
self-cleavage kobs at 640 uM GlcN6P [3]: 0.00028 ± 6.1e-05 s⁻¹
self-cleavage kobs at 2500 uM GlcN6P [4]: 0.00034 ± 6.3e-05 s⁻¹
self-cleavage kobs at 10000 uM GlcN6P [5]: 0.00129 ± 0.00013 s⁻¹

G32A G44U
self-cleavage kobs at 40 uM GlcN6P [1]: < 1e-05 s⁻¹
self-cleavage kobs at 640 uM GlcN6P [3]: < 1e-05 s⁻¹

G38C U55A G63U
self-cleavage kobs at 40 uM GlcN6P [1]: < 1e-05 s⁻¹
self-cleavage kobs at 640 uM GlcN6P [3]: < 1e-05 s⁻¹
self-cleavage kobs at 2500 uM GlcN6P [4]: < 1e-05 s⁻¹

G29U C71U
self-cleavage kobs at 40 uM GlcN6P [1]: 0.000132 ± 1.2e-05 s⁻¹
self-cleavage kobs at 160 uM GlcN6P [2]: 0.000298 ± 2.9e-05 s⁻¹
self-cleavage kobs at 640 uM GlcN6P [3]: 0.000578 ± 0.0001 s⁻¹
self-cleavage kobs at 2500 uM GlcN6P [4]: 0.00226 ± 0.00052 s⁻¹
self-cleavage kobs at 10000 uM GlcN6P [5]: 0.00363 ± 0.00043 s⁻¹

C8U G63C
self-cleavage kobs at 40 uM GlcN6P [1]: < 1e-05 s⁻¹
self-cleavage kobs at 160 uM GlcN6P [2]: < 1e-05 s⁻¹
self-cleavage kobs at 640 uM GlcN6P [3]: < 1e-05 s⁻¹
self-cleavage kobs at 2500 uM GlcN6P [4]: < 1e-05 s⁻¹
self-cleavage kobs at 10000 uM GlcN6P [5]: < 1e-05 s⁻¹

A33G A52C U55G
self-cleavage kobs at 40 uM GlcN6P [1]: < 1e-05 s⁻¹

U30A A33U C34G G37A
self-cleavage kobs at 40 uM GlcN6P [1]: < 1e-05 s⁻¹

A6U G7C C8G G38U
self-cleavage kobs at 40 uM GlcN6P [1]: < 1e-05 s⁻¹
self-cleavage kobs at 640 uM GlcN6P [3]: < 1e-05 s⁻¹

A6C C10U U30G A52G
self-cleavage kobs at 40 uM GlcN6P [1]: < 1e-05 s⁻¹
self-cleavage kobs at 10000 uM GlcN6P [5]: < 1e-05 s⁻¹

A33G C50G G66U
self-cleavage kobs at 40 uM GlcN6P [1]: 0.000106 ± 2.6e-05 s⁻¹
self-cleavage kobs at 640 uM GlcN6P [3]: 0.000115 ± 5.2e-05 s⁻¹
self-cleavage kobs at 2500 uM GlcN6P [4]: 0.000301 ± 0.0001 s⁻¹
self-cleavage kobs at 10000 uM GlcN6P [5]: 5.3e-05 ± 2.2e-05 s⁻¹

C8U A14G
self-cleavage kobs at 40 uM GlcN6P [1]: < 1e-05 s⁻¹
self-cleavage kobs at 160 uM GlcN6P [2]: < 1e-05 s⁻¹
self-cleavage kobs at 2500 uM GlcN6P [4]: < 1e-05 s⁻¹

G7A U56A
self-cleavage kobs at 40 uM GlcN6P [1]: < 1e-05 s⁻¹
self-cleavage kobs at 160 uM GlcN6P [2]: < 1e-05 s⁻¹
self-cleavage kobs at 640 uM GlcN6P [3]: < 1e-05 s⁻¹

G7U A36C G59U
self-cleavage kobs at 40 uM GlcN6P [1]: < 1e-05 s⁻¹
self-cleavage kobs at 10000 uM GlcN6P [5]: < 1e-05 s⁻¹

C16G G51A
self-cleavage kobs at 40 uM GlcN6P [1]: < 1e-05 s⁻¹
self-cleavage kobs at 160 uM GlcN6P [2]: < 1e-05 s⁻¹
self-cleavage kobs at 10000 uM GlcN6P [5]: < 1e-05 s⁻¹

C10U C58G
self-cleavage kobs at 40 uM GlcN6P [1]: < 1e-05 s⁻¹
self-cleavage kobs at 160 uM GlcN6P [2]: < 1e-05 s⁻¹
self-cleavage kobs at 2500 uM GlcN6P [4]: < 1e-05 s⁻¹
self-cleavage kobs at 10000 uM GlcN6P [5]: < 1e-05 s⁻¹

G41C C58U G59C
self-cleavage kobs at 40 uM GlcN6P [1]: < 1e-05 s⁻¹

C8G G32A G59U
self-cleavage kobs at 40 uM GlcN6P [1]: < 1e-05 s⁻¹
self-cleavage kobs at 2500 uM GlcN6P [4]: < 1e-05 s⁻¹
self-cleavage kobs at 10000 uM GlcN6P [5]: < 1e-05 s⁻¹

A6U G37C G41C U47C A48U G59U
self-cleavage kobs at 40 uM GlcN6P [1]: < 1e-05 s⁻¹
self-cleavage kobs at 10000 uM GlcN6P [5]: < 1e-05 s⁻¹

U47C G66C C67U
self-cleavage kobs at 40 uM GlcN6P [1]: < 1e-05 s⁻¹

G32U G40U U46C U54G C70G
self-cleavage kobs at 40 uM GlcN6P [1]: < 1e-05 s⁻¹

C61A U65C C70U
self-cleavage kobs at 40 uM GlcN6P [1]: < 1e-05 s⁻¹
self-cleavage kobs at 10000 uM GlcN6P [5]: < 1e-05 s⁻¹

C16G U69C
self-cleavage kobs at 40 uM GlcN6P [1]: 5.13e-05 ± 2e-05 s⁻¹
self-cleavage kobs at 10000 uM GlcN6P [5]: 0.000195 ± 5.5e-05 s⁻¹

C10U G32C C68A
self-cleavage kobs at 40 uM GlcN6P [1]: < 1e-05 s⁻¹

U30G G62A
self-cleavage kobs at 40 uM GlcN6P [1]: < 1e-05 s⁻¹
self-cleavage kobs at 160 uM GlcN6P [2]: < 1e-05 s⁻¹
self-cleavage kobs at 640 uM GlcN6P [3]: < 1e-05 s⁻¹
self-cleavage kobs at 10000 uM GlcN6P [5]: < 1e-05 s⁻¹

G37U G59U
self-cleavage kobs at 40 uM GlcN6P [1]: < 1e-05 s⁻¹
self-cleavage kobs at 640 uM GlcN6P [3]: < 1e-05 s⁻¹

G32U C58G A64G C67A
self-cleavage kobs at 40 uM GlcN6P [1]: 7.51e-05 ± 2.6e-05 s⁻¹
self-cleavage kobs at 10000 uM GlcN6P [5]: 0.000152 ± 2.4e-05 s⁻¹

C10G C50G C58A C61A
self-cleavage kobs at 40 uM GlcN6P [1]: 9.48e-05 ± 2.9e-05 s⁻¹
self-cleavage kobs at 10000 uM GlcN6P [5]: 5.26e-05 ± 2e-05 s⁻¹

G13C G41U C70U
self-cleavage kobs at 40 uM GlcN6P [1]: < 1e-05 s⁻¹

A42U U65A
self-cleavage kobs at 40 uM GlcN6P [1]: < 1e-05 s⁻¹
self-cleavage kobs at 160 uM GlcN6P [2]: < 1e-05 s⁻¹
self-cleavage kobs at 10000 uM GlcN6P [5]: 4.89e-05 ± 1.2e-05 s⁻¹

A6G A12U C61U
self-cleavage kobs at 40 uM GlcN6P [1]: < 1e-05 s⁻¹
self-cleavage kobs at 10000 uM GlcN6P [5]: < 1e-05 s⁻¹

G13C G43U A52U
self-cleavage kobs at 40 uM GlcN6P [1]: < 1e-05 s⁻¹
self-cleavage kobs at 640 uM GlcN6P [3]: < 1e-05 s⁻¹
self-cleavage kobs at 2500 uM GlcN6P [4]: < 1e-05 s⁻¹
self-cleavage kobs at 10000 uM GlcN6P [5]: < 1e-05 s⁻¹

A6C G35U A36C
self-cleavage kobs at 40 uM GlcN6P [1]: < 1e-05 s⁻¹
self-cleavage kobs at 2500 uM GlcN6P [4]: < 1e-05 s⁻¹
self-cleavage kobs at 10000 uM GlcN6P [5]: < 1e-05 s⁻¹

A6C A36G A52G
self-cleavage kobs at 40 uM GlcN6P [1]: < 1e-05 s⁻¹
self-cleavage kobs at 2500 uM GlcN6P [4]: < 1e-05 s⁻¹
self-cleavage kobs at 10000 uM GlcN6P [5]: < 1e-05 s⁻¹

U30A C58A G60C U69G
self-cleavage kobs at 40 uM GlcN6P [1]: < 1e-05 s⁻¹
self-cleavage kobs at 10000 uM GlcN6P [5]: < 1e-05 s⁻¹
